From PMC12148371 (iScience, 2025)

Target: EBOV-GP-RBD without the glycan cap and MLD, displayed on the cell surface (EGPdcm, wild type) (Zaire ebolavirus)
Assay: flow cytometry on cells

## NPC1-His (from UniProt O15118 23-1278) (receptor)
  percent NPC1 binding (positive cells): 94.7%
  percent NPC1 binding (positive cells), without competitor: 76.4%
